Publication PMC9797058

What was measured:
[1] = molecular target: N-terminally His-tagged Pasteurella multocida toxin (PMT) (Pasteurella multocida) (UniProt P17452); assay: ELISA; solid-phase binding assay; His-PMT coated at 10 ug/mL (500 ng/well) on 96-well Maxisorb plates at 4 C overnight; LRP1 cluster 2, 3 or 4 at 0.02-500 nM, RT, 2 h; TBS with 2 mM CaCl2; bound ligand detected with goat anti-human IgG-HRP
LRP1 (Homo sapiens) = LRP1 (Homo sapiens) (UniProt Q07954); settings: cited from earlier work

Chain of UniProt P17452 (P17452 whole entry): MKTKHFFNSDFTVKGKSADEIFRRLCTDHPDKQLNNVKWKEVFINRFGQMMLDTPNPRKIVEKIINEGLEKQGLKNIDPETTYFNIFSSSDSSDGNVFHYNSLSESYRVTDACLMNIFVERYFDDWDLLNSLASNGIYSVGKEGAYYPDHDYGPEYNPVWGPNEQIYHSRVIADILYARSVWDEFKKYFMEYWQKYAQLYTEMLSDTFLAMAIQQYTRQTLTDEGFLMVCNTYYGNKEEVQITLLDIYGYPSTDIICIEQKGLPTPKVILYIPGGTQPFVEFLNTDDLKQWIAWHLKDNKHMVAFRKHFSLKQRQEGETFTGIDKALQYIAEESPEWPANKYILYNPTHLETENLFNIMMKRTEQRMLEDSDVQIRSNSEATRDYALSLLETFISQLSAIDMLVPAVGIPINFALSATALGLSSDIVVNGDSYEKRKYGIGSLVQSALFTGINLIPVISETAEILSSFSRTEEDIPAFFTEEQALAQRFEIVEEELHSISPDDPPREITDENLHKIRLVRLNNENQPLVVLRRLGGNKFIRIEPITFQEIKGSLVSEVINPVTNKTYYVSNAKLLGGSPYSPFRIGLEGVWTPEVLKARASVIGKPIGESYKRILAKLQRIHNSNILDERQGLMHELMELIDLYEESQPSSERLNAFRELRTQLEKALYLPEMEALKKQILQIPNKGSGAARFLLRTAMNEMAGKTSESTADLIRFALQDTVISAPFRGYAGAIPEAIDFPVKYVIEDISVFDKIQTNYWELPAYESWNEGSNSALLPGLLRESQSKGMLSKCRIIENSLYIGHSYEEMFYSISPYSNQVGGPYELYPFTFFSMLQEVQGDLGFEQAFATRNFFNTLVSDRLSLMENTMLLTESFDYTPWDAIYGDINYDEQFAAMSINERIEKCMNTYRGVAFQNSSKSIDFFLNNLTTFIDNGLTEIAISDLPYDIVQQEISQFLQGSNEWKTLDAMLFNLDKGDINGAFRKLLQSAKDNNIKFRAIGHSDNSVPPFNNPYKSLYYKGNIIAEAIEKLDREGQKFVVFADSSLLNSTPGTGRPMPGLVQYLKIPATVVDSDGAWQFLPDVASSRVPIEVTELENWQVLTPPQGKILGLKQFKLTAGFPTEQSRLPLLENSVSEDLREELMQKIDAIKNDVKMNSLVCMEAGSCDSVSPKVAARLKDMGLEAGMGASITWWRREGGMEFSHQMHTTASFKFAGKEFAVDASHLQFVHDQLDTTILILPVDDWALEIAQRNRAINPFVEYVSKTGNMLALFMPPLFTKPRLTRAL

Row | Substance | Kd [1] | Kd (LRP1 (Homo sapiens))
1 | LRP1 cluster 2 (commercially available extracellular domain) (from UniProt Q07954 20-4544) (domain or fragment) | 41.6 nM | –
2 | Pseudomonas exotoxin A (from UniProt P11439) | – | 5.2 nM
3 | LRP1 cluster 4 (commercially available extracellular domain) (from UniProt Q07954 20-4544) (domain or fragment) | 2.28 nM | –
